B1: Ytm1 (Chaetomium thermophilum ribosome assembly factor) (natural protein)
chain: MDAPMEDAPAPVAQVKVIFTTTEPDLELPESKRQLLVPADIRRYGLSRILNSESMLDTGSIPFDFLINGSFLRSSLEDYLTSNGLSLETTLTLQYVRSLIPPVYEASFEHDDWVSAVDVLSATSPAGRWSSAANSSAAVQPGQERVLSASYDGLLRIWNASGSVIATSPSGSHGGHTASIKAAKFLTSDRLASAGMDRTVRVWKYTESDHFTGELKPTLELYGHTGSVDWLDVDGHSKHILTASADGAIGFWSASKASAPEPDASLLPGAHVSKRRKATSSVSTAQRGPLGLWSIHTAPATAAIFDPRDRTVAYSASQDHTVRTLDLTTGQVVSTLTLTHPLLSLSALTRAGTTSPLLAAGTSARHITMVDPRASSATTSVMTLRGHANKVVSLSPSPENEYSLVSGSHDGTCRVWDLRSVRPATKEEGSLGGVSEPVYVIERESWASKGKKKRPVAGDGCKVFSVVWDKLGIFSGGEDKKVQVNRGRNIVTEQK
notes: Ytm1, Chaetomium thermophilum; YTM1 gene amplified from total cDNA and cloned in pOPIN-F; For MST, Ytm1 was labelled with the Red-NHS second-generation dye; source: Sf9 insect cells (baculovirus), purified (Histrap-HP Ni, Superdex 200 SEC)
B2: Erb1 (Chaetomium thermophilum ribosome assembly factor) (natural protein, UniProt G0SCK6 1-801, looked up)
chain: MGSKIVEKKRKSRDSDSESDNELGDGLFDGVLSQSEDEEDYIPSSEVDEDDDDDADESASEDSDDSNDSEDDEVEEDDEALLSDEIPSEGESEKDQDLAESKESKQDQDKEPSEPEILEPFVDPPRKEDEELEDRNYRIEKDANGGIRYVYDEIDPVYDSDDTDYNVPVNTIGNIPLSFYDSYPHIGYDINGKKIMRPATGDALQNLLDSIEVPEGWTGLTDPNTGKPLNLSRDELELIRKVQQGLIPDDVEDPYPDTVEWFTSVEEKMPLSAAPEPKRRFIPSKNEAKQIMKLVRAIREGRILPYKPPEEREREELEKEEEFYDLWQNEEPQPPNPMHIPAPKLPPPGYDLSYNPPPEYLPTKEEREEWEKMDPEDREKDYLPTKYDSLRKVPAWGNFVKERFERCMDLYLAPRVRKNRLNIDPNSLLPKLPSPDELKPFPTVQQTIFRGHEGRVRSVAIDPTGVALATGGDDGTVRVWELLTGRQVWSVKLNGDEAVNTVRWRPTKDTFILAAAAGEDIFLMIPTHPSVTPALDQASRDILNAGFGHATNGKQQANLPPGKEPPGKWARPGTRLEDEGVLLRITVRSTIKAISWHRRGDHFATVSPSGQRSSVAIHTLSKHLTQIPFRKLNGLAQTASFHPLRPLFFVATQRSIRCYDLQKLELVKIVQPGAKWISSFDVHPGGDNLVVGSYDKRLLWHDLDLSNRPYKTMRFHTEAIRAVRFHKGGLPLFADASDDGSLQIFHGKVPNDQLENPTIVPVKMLKGHKVVNKLGVLDIDWHPREPWCVSAGADGTARLWM
notes: Erb1, Chaetomium thermophilum; cloned in pET28-NKI/LIC 6His/3C; Erb1 was held on Ni-NTA biosensors; source: E. coli (DE3) BL21 CodonPlus (RIPL), auto-induction, purified (Histrap-HP Ni, HiTrap Heparin, Superdex 200 SEC)

The target of one experiment is T1, Erb1/Ytm1 complex (Thermochaetoides thermophila, UniProt G0SFB5).
T1 construct: 6xHis; made in house; host or cells: Ytm1: Sf9 insect cells (baculovirus); Erb1: Escherichia coli (DE3) BL21 CodonPlus (RIPL)
T1 sequence (G0SFB5 1-495): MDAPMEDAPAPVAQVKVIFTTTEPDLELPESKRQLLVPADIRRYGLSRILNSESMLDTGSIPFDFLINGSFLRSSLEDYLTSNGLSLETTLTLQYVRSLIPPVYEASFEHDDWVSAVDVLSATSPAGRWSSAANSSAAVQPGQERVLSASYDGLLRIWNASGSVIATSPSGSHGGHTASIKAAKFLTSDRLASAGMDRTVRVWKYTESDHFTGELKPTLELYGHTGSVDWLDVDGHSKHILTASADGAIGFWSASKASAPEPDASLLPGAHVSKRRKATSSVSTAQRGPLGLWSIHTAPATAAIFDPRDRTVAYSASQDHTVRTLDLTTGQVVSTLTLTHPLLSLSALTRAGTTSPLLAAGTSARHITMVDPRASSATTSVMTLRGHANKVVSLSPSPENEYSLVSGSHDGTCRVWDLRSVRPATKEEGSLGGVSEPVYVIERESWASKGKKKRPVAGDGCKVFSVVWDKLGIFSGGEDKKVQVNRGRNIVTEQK
The experiment can be described thus: Biolayer interferometry peptide interference assay, immobilized Erb1, Ytm1 analyte preincubated with P1-P3. Type of experiment: binding, Chaetomium thermophilum. The following applies: BLI, 5 µM Ytm1 preincubated with equimolar peptide, reference without peptide 1.724e-3. The method, then: Peptides were commercially obtained from Synpeptide Co., Ltd., Shanghai, China. All experiments have been made in triplicates and include control curves for bait and analyte only.
Potential interference peptide samples were evaluated by their ability to interfere the kinetics and affinity of the complex between Erb1 and Ytm1 as measured by Biolayer Interferometry (BLItz, Pall FortéBio Corp.) using Ni-NTA biosensors (FortéBio) and 50 mM HEPES, pH 7.5; 150 mM NaCl; 5% (v/v) glycerol; and 2 mM β-mercaptoethanol (BME) buffer. To set the reference KD, an 80 µg/ml solution of Erb1 was immobilized to the biosensor in order to obtain binding curves for increasing concentrations of Ytm1. According to this, an evaluation of Erb1-derived peptides (P1–P3) was performed using 5 µM Ytm1 previously incubated during 30 min at equimolar concentrations of each peptide. New KD values were determined. […]
Biolayer interferometry interference assays were used to evaluate the ability of each peptide to interfere in the in vitro formation of the Erb1/Ytm1 complex. […] Peptides were evaluated for their ability to decrease in the Erb1/Ytm1 complex formation by preincubating the analyte with each peptide derived from the immobilized partner. […] Erb1-derived peptides were evaluated by their ability to decrease Erb1/Ytm1 complex affinity. […]
(BLI is a label-free optical method that tracks binding on a fibre tip over time.)

The target of experiment [1] is T2, Ytm1 (Thermochaetoides thermophila, UniProt G0SFB5).
T2 construct: 6xHis; made in house; host or cells: Sf9 insect cells (baculovirus)
T2 sequence (G0SFB5 1-495): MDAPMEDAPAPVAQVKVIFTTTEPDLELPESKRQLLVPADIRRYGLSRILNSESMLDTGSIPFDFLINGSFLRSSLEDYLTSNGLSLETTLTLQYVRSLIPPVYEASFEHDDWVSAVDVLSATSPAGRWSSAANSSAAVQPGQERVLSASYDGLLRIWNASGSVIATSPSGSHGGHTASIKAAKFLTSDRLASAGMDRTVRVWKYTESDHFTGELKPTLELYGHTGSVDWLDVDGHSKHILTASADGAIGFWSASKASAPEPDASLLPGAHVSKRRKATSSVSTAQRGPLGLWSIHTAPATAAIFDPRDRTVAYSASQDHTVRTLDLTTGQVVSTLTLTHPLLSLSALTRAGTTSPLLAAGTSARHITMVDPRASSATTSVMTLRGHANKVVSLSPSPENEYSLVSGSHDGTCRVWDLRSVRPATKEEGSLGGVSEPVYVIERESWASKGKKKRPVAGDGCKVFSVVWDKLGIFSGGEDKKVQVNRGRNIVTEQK
The experiment can be described thus: Differential scanning fluorimetry (thermofluor) of Ytm1 with peptide. It is filed as binding, Chaetomium thermophilum. The following applies: DSF, SYPRO Orange 1:1,000; 5 µM Ytm1, 1 mM peptide; 50 mM HEPES pH 7.5, 150 mM NaCl; 20-85°C at 1°C/min; triplicates. As for the experimental part: Thermofluor assays ([Pantoliano et al., 2001]) were performed on a 7,500 Fast Real-Time PCR System (Applied Biosystems) measuring the gradual fluorescence generated by a 1:1,000 dilution of SYPRO Orange Protein Stain Gel (Supelco, Merck-Sigma) along with 1°C/min temperature increase from 20°C until 85°C.
The samples were mixed containing the protein Ytm1 at 5 µM in 50 mM HEPES pH 7.5, 150 mM NaCl and peptides P1-P3 at 1 mM concentration. Previously, lyophilized P2 and P3 were resuspended in the same Ytm1 buffer and P1 was solubilized in 10 mM Tris (hydroxymethyl)-methylamine (Tris-HCl), pH 8.8 for P1. Data of triplicated experiments were analyzed using GraphPad Prism 5.01 software.
For orientation: DSF heats the sample and reads unfolding from a dye or from intrinsic fluorescence.

Experiment [2] deals with T2, Ytm1. The experiment can be described thus: Microscale thermophoresis of labelled Ytm1 with peptide. The following applies: peptide at a maximum concentration of 1,580 µM, data quality did not allow fitting of KD. It is filed as binding, Chaetomium thermophilum. As for the experimental part:
Microscale thermophoresis (MST) was used to determine the binding affinity between Ytm1 and P1. Ytm1 was labeled with a Red-NHS second-generation dye kit (100 µl at 10 µM of protein +300 µM dye solution) for 30 min at room temperature in the dark. 5 nM of labeled Ytm1 in 50 mM HEPES pH 7.5, NaCl 150 mM supplemented with 0.1% (v/v) Pluronic F-127 was used for the assay. P1 stock is diluted in 10 mM Tris (hydroxymethyl)-methylamine (Tris-HCl), pH 8.8. Ytm1 and P1 were mixed at 1:1 molar ratio in sixteen serial dilutions (1,230 μM–0.0751 µM) using the same buffer. Measurements were taken on a Monolith NT.115 instrument (NanoTemper Technologies). Similarly biding between Ytm1 and P3 using MST was tested using the same Ytm1 buffer also for P3. Curve fitting and KD calculations every 10 min were analyzed from three independent experiments with MO. […] Curves were analyzed using Affinity Analysis Software (NanoTemper Technologies).

The target in experiment [3] is B2. The experiment can be described thus: BLI; BLItz; Ytm1 (80 µg/ml) immobilised on Ni-NTA biosensor, Erb1 as analyte; 50 mM HEPES pH 7.5, 150 mM NaCl, 5% glycerol, 2 mM BME; reference without peptide. The following applies: both partners purified.
The target in experiment [4] is B2. The experiment can be described thus: BLI; BLItz; Erb1 (80 µg/ml) immobilised on Ni-NTA biosensor, increasing concentrations of Ytm1 as analyte; 50 mM HEPES pH 7.5, 150 mM NaCl, 5% glycerol, 2 mM BME; reference without peptide. The following applies: both partners purified.
Experiment [5] concerns the target B2. The experiment can be described thus: BLI; interference assay; Erb1 (80 µg/ml) immobilised on Ni-NTA biosensor; 5 µM Ytm1 preincubated 30 min with equimolar Erb1-derived peptide (P1-P3) as analyte; 50 mM HEPES pH 7.5, 150 mM NaCl, 5% glycerol, 2 mM BME. The following applies: both partners purified.
Experiment [6] concerns the target B1. The experiment can be described thus: BLI; interference assay; Ytm1 (80 µg/ml) immobilised on Ni-NTA biosensor; 20 µM Erb1 preincubated with equimolar Ytm1-derived peptide (P4-P6) as analyte; 50 mM HEPES pH 7.5, 150 mM NaCl, 5% glycerol, 2 mM BME. The following applies: both partners purified.

Consider “DWHPREPWCV [Peptide P3, Erb1-derived peptide …, residues 780–789]”, for which the “kd (1/s) of Erb1/Ytm1 binding after preincubation of Ytm1 with peptide” value on Erb1/Ytm1 complex worked out at 0.01238 s⁻¹. The “Thermal shift (Tm) of Ytm1 in the presence of peptide” value on Ytm1 [1] is recorded as “did not show any significant thermal shift”. For the same molecule, the “Binding to Ytm1 by MST (in words)” value on Ytm1 [2] is given as “tendency toward binding”.
What is called Kd is the concentration at which binding is half-saturated. Molecule B1 gave a Kd in experiment [3] of 229 nM. In experiment [4], binding was put at a Kd of 32.3 nM. Moreover, in experiment [5], the “KD after preincubation of Ytm1 with equimolar P1” value stood at 190 nM and the “KD after preincubation of Ytm1 with equimolar P3” value was 170 nM.
In the case of B2, in experiment [6], the “KD after preincubation of Erb1 with equimolar P6” value is 2400 nM.

For the origin of these results see article PMC8440923, “Peptides Targeting the Interaction Between Erb1 and Ytm1 Ribosome Assembly Factors” (Frontiers in Molecular Biosciences, 2021).
